We go through 26 sequences from the supplement of paper PMC7877785.

± gives the uncertainty stated by the source.

The data set can be described thus: self-splicing fitness, log relative to wild type (ln ratio); higher = more splicing; Tetrahymena group I intron in knt gene, E. coli kanamycin selection, DiMSum; sequences stand for … in CUCUCU…GGAGGGAAAAGUUAUCAGGCAUGCACCUGGUAGCUAGUCUUUAAACCAAUAGAUUGCAUCGGUUUAAAAGGCAAGACCGUCAAAUUGCGGGAAAGGGGUCAACAGCCGUUCAGUACCAAGUCUCAGGGGAAACUUUGAGAUGGCCUUGCAAAGGGUAUGGUAAUAAGCUGACGGACAUGGUCCUAACCACGCAGCCAAGUCCUAAGUCAACAGAUCUUCUGUUGAUAUGGAUGCAGUUCACAGACUAAAUGUCGGUCGGGGAAGAUGUAUUCUUCUCAUAAGAUAUAGUCGGACCUCUCCUUAAUGGGAGCUAGCGGAUGAAGUGAUGCAACACUGGAGCCGCUGGGAACUAAUUUGUAUGCGAAAGUAUAUUGAUUAGUUUUGGAGUACUCGUGGUCG
The method in brief:
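Library with all eight P1ex-region intron nucleotides randomised, intron inside the knt kanamycin-resistance gene on pET-22b(+), in E. coli BL21(DE3). Cells grew overnight at 37°C or 30°C on LB agar with or without 25 μg/mL kanamycin (plus 100 μg/mL carbenicillin, 50 μM IPTG, 0.2% rhamnose), in six replicate transformations. Pooled colonies were amplicon-sequenced on Illumina HiSeq 2500. DiMSum fitness is the error-weighted combination of wild-type-normalised replicate fold changes, kanamycin versus none.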

UUUGAGCAAUAUUACGGAUA: the “self-splicing fitness (ln)” value was -3.12 ± 0.43 (30 °C) and -2.36 ± 0.45 (37 °C).

With UUUGAGCAAUAUUACGGCAC, the “self-splicing fitness (ln)” value is -2.87 ± 0.41 (30 °C) and -2.56 ± 0.31 (37 °C).

As to UUUGAGCAAUAUUACGGGCG, the “self-splicing fitness (ln)” value reads like this: (30 °C) -3.15 ± 0.42; (37 °C) -2.16 ± 0.43.

Turning to UUUGAGCAAUAUUACGGGCU, the “self-splicing fitness (ln)” value was -2.89 ± 0.34 (30 °C) and -2.86 ± 0.41 (37 °C).

In the case of UUUGAGCAAUAUUACGGGUC, the “self-splicing fitness (ln)” value (37 °C) is -3.77 ± 0.46.

In the case of UUUGAGCAAUAUUACGUACC, the “self-splicing fitness (ln)” value is -2.34 ± 0.44 (30 °C) and -2.3 ± 0.42 (37 °C).

Consider UUUGAGCAAUAUUACGUAUG, for which the “self-splicing fitness (ln)” value by setting is: (30 °C) -1.73 ± 0.16; (37 °C) -2.59 ± 0.24.

For the sequence UUUGAGCAAUAUUACGUCUG, the “self-splicing fitness (ln)” value was -2.41 ± 0.24 (30 °C) and -0.733 ± 0.21 (37 °C).

On to UUUGAGCAAUAUUACGUGGG, for which the “self-splicing fitness (ln)” value was -2.17 ± 0.47 (30 °C) and -1.39 ± 0.3 (37 °C).

UUUGAGCAAUAUUACGUGGU: the “self-splicing fitness (ln)” value by setting is: (30 °C) -4.12 ± 0.33; (37 °C) -2.74 ± 0.38.

Take UUUGAGCAAUAUUACGUUCC: the “self-splicing fitness (ln)” value (30 °C) was -3.99 ± 0.39.

As to UUUGAGCAAUAUUACGUUCG, the “self-splicing fitness (ln)” value (30 °C) was -4.2 ± 0.42 and the “self-splicing fitness (ln)” value (37 °C) was -1.18 ± 0.19.

Take UUUGAGCAAUAUUACGUUGA: where the note is “37 °C”, the “self-splicing fitness (ln)” value was -1.92 ± 0.33.

Regarding UUUGAGCAAUAUUACGUUGU, the “self-splicing fitness (ln)” value was -2.68 ± 0.21 (30 °C) and -2.46 ± 0.28 (37 °C).

Regarding UUUUAGCAAUAUUACGACUC, the “self-splicing fitness (ln)” value (30 °C) was -2.56 ± 0.46.

As for UUUUAGCAAUAUUACGAGGU, the “self-splicing fitness (ln)” value (30 °C) was -2.89 ± 0.43.

On to UUUUAGCAAUAUUACGCAGG, for which the “self-splicing fitness (ln)” value is, setting by setting: (30 °C) -1.33 ± 0.12; (37 °C) -1.03 ± 0.16.

For the sequence UUUUAGCAAUAUUACGCGAA, the “self-splicing fitness (ln)” value is -1.57 ± 0.28 (30 °C) and -1.08 ± 0.39 (37 °C).

On to UUUUAGCAAUAUUACGCGCC, for which the “self-splicing fitness (ln)” value was -1.71 ± 0.29 (30 °C) and -0.726 ± 0.28 (37 °C).

As for UUUUAGCAAUAUUACGCGUA, the “self-splicing fitness (ln)” value runs as follows: (30 °C) -1.57 ± 0.13; (37 °C) -1.22 ± 0.12.

With UUUUAGCAAUAUUACGGCCC, where the note is “37 °C”, the “self-splicing fitness (ln)” value was -1.14 ± 0.42.

Consider UUUUAGCAAUAUUACGUAAC, for which the “self-splicing fitness (ln)” value was -3.07 ± 0.31 (30 °C) and -1.57 ± 0.38 (37 °C).

In the case of UUUUAGCAAUAUUACGUCUU, the “self-splicing fitness (ln)” value by setting is: (30 °C) -2.43 ± 0.18; (37 °C) -1.33 ± 0.19.

UUUUAGCAAUAUUACGUGAC: the “self-splicing fitness (ln)” value is -3.41 ± 0.28 (30 °C) and -0.031 ± 0.22 (37 °C).

Turning to UUUUAGCAAUAUUACGUGGG, the “self-splicing fitness (ln)” value reads like this: (30 °C) -1.79 ± 0.2; (37 °C) -2.27 ± 0.27.

As for UUUUAGCAAUAUUACGUUUA, the “self-splicing fitness (ln)” value (30 °C) is -1.94 ± 0.22 and the “self-splicing fitness (ln)” value (37 °C) is -1.05 ± 0.16.
